Test results as given in patent US20090192048A1, “METHOD OF PRODUCING A […] AGENT FOR BINDING A LIGAND” (priority 2005, published 2009).
Ends that are not written are not given here.

Legend:
Type in all cases: physicochemical
[1] = Retention of peptides 2DOS-1 to 2DOS-16 on a hydrophobic surface (polypropylene microtitre plate wells), water wash; settings: 400V scan
How it was run: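 10 μM peptides, with TAMRA, in 10 mM tris-HCl pH 8.0 in 50% acetonitrile, dried overnight in polypropylene wells, then washed ten times with water. Retained peptide resuspended in the same solvent and fluorescence imaged (532 nm excitation, 580 nm filter). Quantified from 400 V scans.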

[2] = Time-dependent persistence of peptide 2DOS-2 on a polypropylene hydrophobic surface in aqueous buffer
Procedure: The time-dependent persistence of peptide 2DOS-2 (see above) deposited onto a polypropylene hydrophobic surface in the presence of aqueous buffer was investigated as shown below:
Twelve 100 μl aliquots of 5 μM peptide 2DOS-2 in 5 mM tris-HCl (pH 8.0) in 75% (v/v) aqueous acetonitrile were dispensed to the wells of the top row of a Costar microtitre plate.
The peptide samples were allowed to evaporate to dryness in the dark.
The dried peptide samples in wells 1-10 were incubated with 250 μl of 1 M NaCl in 10 mM tris-HCl (pH 8.0) for the time indicated below at room temperature. All supernatants were pipetted up and down 8 times after incubation and the supernatants were then removed and placed in the wells of the bottom row of the microtitre plate.
The residual surface-bound peptides in all twelve wells were finally resuspended in 50 μl of 10 mM tris-HCl (pH 8.0) in 50% (v/v) aqueous acetonitrile and the microtitre plates were imaged at 200 μm resolution on a Typhoon Trio Plus variable mode imager (Amersham Biosciences) with the green (532 nm) laser and the 580 BP 30 filter at the PMT voltages indicated below and at normal sensitivity. The scan height was set at +3 mm and the sample was pressed during scanning.
The fluorescence images were analysed using ImageQuant TL v2003.03 (Amersham Biosciences).

[3] = Retention of peptides in V-bottomed polypropylene wells; settings: V-bottom wells, 500V scan
How it was run: (§1)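 1 μl of 10 μM peptide or TAMRA in 10 mM Tris-HCl pH 8.0/50% acetonitrile dried in the dark in flat- or V-bottomed polypropylene wells. Some wells washed 15 min at RT with 1 M NaCl in 10 mM Tris pH 8.0, others left untreated; all redissolved in 50 μl Tris/acetonitrile and fluorescence imaged at 532 nm excitation, 580 BP 30 filter.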

[4] = Retention of peptides in flat-bottomed polypropylene wells; settings: flat-bottom wells, 500V scan
How it was run: as §1

[5] = Retention of peptides on Costar polypropylene V-bottom wells; settings: 400V scan
How it was run: (§2)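 Peptides (5 μM) and TAMRA dried from 5 mM tris-HCl pH 8.0 in 75% acetonitrile in V-bottom wells; some wells washed 15 min at room temperature with 1 M NaCl in 10 mM tris-HCl pH 8.0. Residue redissolved in 10 mM tris-HCl pH 8.0/50% acetonitrile; retained fluorescence imaged with 532 nm excitation, 580 BP 30 filter.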

[6] = Retention of peptides on Greiner polypropylene V-bottom wells; settings: 400V scan
How it was run: as §2

[7] = Retention of peptides on Greiner polystyrene V-bottom wells; settings: 400V scan
How it was run: as §2

[8] = washed 15 minutes in 1 M NaCl in 10 mM tris-HCl (pH 8.0)

N-TAMRA-Phe-Asp- Phe-Ala-Phe-Ser- Phe-Lys-Phe-C ({TAMRA}-FDFAFSFKF) [Peptide 2DOS-2]
Initial fluorescence (×10^3) ([1]; 100 μl of 10 μM peptide before drying and washing): 32,492 ×10^3 | Recovered fluorescence (×10^3) ([1]; dried, washed ten times with 250 μl water, resuspended): 15,704 ×10^3 | Percent retention ([2]; 0 minutes in 1 M NaCl/10 mM tris-HCl (pH 8.0)): 90% | Retained fluorescence ([2]; 0 minutes in 1 M NaCl/10 mM tris-HCl (pH 8.0), 300V scan): 904,211 | Stability of retention on polypropylene over time (in words) ([2]; 1 M NaCl/10 mM tris-HCl (pH 8.0), up to 510 minutes): stable for extended periods of time | Percent retention ([2]; 2.5 minutes in 1 M NaCl/10 mM tris-HCl (pH 8.0)): 90% | Retained fluorescence ([2]; 2.5 minutes in 1 M NaCl/10 mM tris-HCl (pH 8.0), 300V scan): 902,082 | Untreated fluorescence (average) ([2]; 300V scan, unwashed wells): 1,000,613 | Percent retention ([2]; 5 minutes in 1 M NaCl/10 mM tris-HCl (pH 8.0)): 85% | Retained fluorescence ([2]; 5 minutes in 1 M NaCl/10 mM tris-HCl (pH 8.0), 300V scan): 847,767 | Percent retention ([2]; 10 minutes in 1 M NaCl/10 mM tris-HCl (pH 8.0)): 79% | Retained fluorescence ([2]; 10 minutes in 1 M NaCl/10 mM tris-HCl (pH 8.0), 300V scan): 792,427 | Percent retention ([2]; 20 minutes in 1 M NaCl/10 mM tris-HCl (pH 8.0)): 75% | Retained fluorescence ([2]; 20 minutes in 1 M NaCl/10 mM tris-HCl (pH 8.0), 300V scan): 749,522 | Percent retention ([2]; 40 minutes in 1 M NaCl/10 mM tris-HCl (pH 8.0)): 77% | Retained fluorescence ([2]; 40 minutes in 1 M NaCl/10 mM tris-HCl (pH 8.0), 300V scan): 769,659 | Percent retention ([2]; 80 minutes in 1 M NaCl/10 mM tris-HCl (pH 8.0)): 74% | Retained fluorescence ([2]; 80 minutes in 1 M NaCl/10 mM tris-HCl (pH 8.0), 300V scan): 740,227 | Percent retention ([2]; 160 minutes in 1 M NaCl/10 mM tris-HCl (pH 8.0)): 74% | Retained fluorescence ([2]; 160 minutes in 1 M NaCl/10 mM tris-HCl (pH 8.0), 300V scan): 739,600 | Percent retention ([2]; 320 minutes in 1 M NaCl/10 mM tris-HCl (pH 8.0)): 81% | Retained fluorescence ([2]; 320 minutes in 1 M NaCl/10 mM tris-HCl (pH 8.0), 300V scan): 805,530 | Percent retention ([2]; 510 minutes in 1 M NaCl/10 mM tris-HCl (pH 8.0)): 80% | Retained fluorescence ([2]; 510 minutes in 1 M NaCl/10 mM tris-HCl (pH 8.0), 300V scan): 803,741 | Percent retention [3]: 86% | Untreated fluorescence ([3]; unwashed): 9,495,183 | Retained fluorescence [3, 8]: 8,127,309 | Percent retention [4]: 93% | Untreated fluorescence ([4]; unwashed): 15,820,680 | Retained fluorescence [4, 8]: 14,665,720 | Percent retention [5]: 94% | Untreated fluorescence ([5]; unwashed): 5,692,134 | Retained fluorescence [5, 8]: 5,349,601 | Percent retention [6]: 78% | Untreated fluorescence ([6]; unwashed): 3,512,023 | Retained fluorescence [6, 8]: 2,731,827 | Percent retention [7]: 64% | Untreated fluorescence ([7]; unwashed): 614,203 | Retained fluorescence [7, 8]: 392,422
